Source: patent US8431396B2, “Anti-angiogenic peptides” (The Cleveland Clinic Foundation, priority 2003, dated 2013)

Tests used:
MMPs = experiment: Reverse zymography of ECM and CM of transfected PAEKDR cells; format: biochemical; details: PAEKDR cells expressing WT or mutant TIMP3
Description: Conditioned medium, cell lysates and ECM fractions from transfected cells were prepared as described previously (Qi et al., 2002). Equal amounts of protein were loaded onto a 12% gel with 1 mg/ml gelatin plus RPE cell-conditioned media, as a source of MMPs, for reverse zymography and processed as described previously (Pavloff et al., 1992).

PAEKDR cells [1] = experiment: VEGF-stimulated migration (modified Boyden chamber) of transfected PAEKDR cells; format: cell-based, porcine; details: VEGF 50 ng/ml
Description: A modified Boyden chamber assay was carried out as described previously 34. Briefly, 8.0 μm pore PVPF polycarbonate membranes were pre-coated with 100 μg/ml collagen type I in 0.2 N acetic acid (Cohesion technologies, INC. Pala Alto, Calif.). […] Chamber was then incubated for 4 hrs at 37° C. in a 5% CO2 humidified incubator. Cells remaining on the top of the filter were removed. Cells on the bottom surface of the filter were fixed, stained and mounted. The number of migrating cells per well was counted microscopically.

KDR-IgG = target: T1, KDR-IgG (Homo sapiens, UniProt P35968); experiment: Cross-linking of [125I]TIMP3 to soluble KDR; format: binding; details: bis(sulfosuccinimidyl)suberate
T1 construct: purchased R&D Systems
Description: Immunoprecipitation of cell lysates with antibodies specific for TIMP3 was followed by immunoblotting with antibodies specific for KDR (top). As a control for KDR receptor, cell lysates were immunoprecipitated with anti-bodies specific for KDR and probed with antibodies specific for KDR Immunoprecipitation with antibodies specific for KDR and immunoblotting with antibodies specific for TIMP3 (bottom) were carried out on PAE-KDR cells exposed to recombinant TIMP3 or PAE-KDR-vector and PAE-KDR cells overexpressing TIMP3, to confirm the interaction. […] Competition with unlabeled TIMP3 was carried out to ensure specificity. […] (E) In vivo interaction of KDR and TIMP3 in human placenta. Immunoprecipitation using antibodies specific TIMP3 (top) and KDR (bottom) was followed by immunoblotting with antibodies specific for KDR (top) and TIMP3 (bottom).
Ligand-receptor complexes on the cell surface were crosslinked with 0.5 mM disuccinimidyl suberate (Pierce) and analyzed by immunoprecipitation and SDS-PAGE followed by autoradiography. For in vitro assays, radioligand was crosslinked with 250 ng soluble KDR.

PAEKDR cells [2] = experiment: VEGF-stimulated proliferation ([3H]thymidine) of transfected PAEKDR cells; format: cell-based, porcine; details: VEGF 15 ng/ml
Description: Cells were seeded at a density of 5000 cells/well in 24 well culture plates and cultured for 24 h in growth medium. […] High molecular weight DNA was precipitated using 5% trichloroacetic acid at 4° C. for 30 min After two washes with ice-cold H2O, 3H radioactivity was solubilized in 1 N NaOH for 20 min at room temperature, acidified by addition of 2 N HCl, and measured using a liquid scintillation counter. Each sample was assayed in triplicate and the assays were repeated at least twice.

soluble FLT1-IgG = target: T2, soluble FLT1-IgG (Homo sapiens, UniProt P17948); experiment: Solid-phase binding of [125I]VEGF165 to soluble FLT1-IgG; details: similar doses as for KDR-IgG
T2 construct: purchased R&D Systems
Description: (B) Expression of KDR in the lysate and plasma membrane (PM) of PAE-KDR and PAE-KDR-TIMP3 was analyzed by immunoprecipitation (Ip) and western blot (Ib) analysis with antibody specific for KDR. […] Values are the mean±s.e.m. of triplicate wells.
Soluble KDR-Fc or FLT1-Fc (50 ng) was added to each well. […] After washing, the bound protein was solubilized with 1% SDS and 1 M NaOH and radioactivity measured in a γ-counter.

KDR [3] = target: T3, KDR (Homo sapiens, UniProt P35968); experiment: [125I]VEGF binding to the surface of PAE-KDR cells; details: pretreatment with recombinant protein
T3 construct: To determine whether these receptor isoforms represent full-length VEGFR-2; expressed in transfected cells; host or cells: porcine aortic endothelial (PAE) cells
Description: (§1) Radioligand binding is expressed as percent binding and is the mean±s.e.m. of triplicate samples. […] All values are expressed as mean±s.e.m. of triplicate samples. […] Binding is expressed as mean±s.e.m.
(§2) Data were analyzed by Scatchard plot analyses.

KDR [4] = target: T3, KDR; experiment: VEGF165-induced KDR phosphorylation (immunoprecipitation/immunoblot); format: cell-based; details: 1 μg/ml; PAE-KDR cells
Description: (§3) PDGF-BB-mediated phosphorylation was examined similarly in PAESPDGFR-β cells (anti-PDGFR-β; top right panel). […] PDGF-BB-mediated phosphorylation of PDGFR-β in PAE-PDGFR-β cells overexpressing TIMP3 (top right). KDR protein or PDGFR-β protein was analyzed by both immunoprecipitation and immunoblotting with antibodies specific for KDR (left) or for PDGFR-β (right; A and B, second panels from top). […] Total protein levels of ERK were determined by immunoblotting with antibodies specific for ERK1/2 (anti-ERK1/2; A and B, bottom).
(§4) Cell fractions, prepared as described earlier, or immunoprecipitates of the lysates with the indicated antibodies, were subjected to SDS-PAGE. Proteins were detected with horseradish peroxidase-conjugated antibodies specific for either rabbit or mouse IgG (Amersham Pharmacia, Piscataway, N.J.) followed by enhanced chemiluminescence.

PAE-KDR cells = experiment: Endothelial cell migration toward VEGF (modified Boyden chamber); format: cell-based, porcine
Description: (B) Comparison of the effects of rTIMP3, rTIMP1 and BB3103 on VEGF165-induced migration of PAE-KDR cells. […] In all migration experiments, migrating cell number is expressed as mean±s.e.m. of quadruplicate samples. All experiments were done in triplicate. Open symbols, KDR-vector; closed symbols, KDR-TIMP3.*, P<0.01; **, P<0.05.
A modified Boyden chamber assay for migration and proliferation assays were carried out as described.

ERK1 and ERK2 = ERK1 and ERK2 phosphorylation (immunoblot); format: cell-based; details: recombinant TIMP3
Description: as §3, §4

PDGFR-β [5] = target: T4, PDGFR-β (Homo sapiens, UniProt P09619); experiment: PDGF-BB-induced PDGFR-β phosphorylation (immunoprecipitation/immunoblot); format: cell-based; details: 1 μg/ml; PAE-PDGFR-β cells
T4 construct: expressed in transfected cells; host or cells: porcine aortic endothelial (PAE) cells
Description: as §3, §4

PDGFR-β [6] = target: T4, PDGFR-β; experiment: [125I]PDGF-BB binding to PAE-PDGFR-β cells; details: recombinant TIMP3 or overexpression
Description: as §1, §2

T4 sequence (P09619 33-1106, species assumed): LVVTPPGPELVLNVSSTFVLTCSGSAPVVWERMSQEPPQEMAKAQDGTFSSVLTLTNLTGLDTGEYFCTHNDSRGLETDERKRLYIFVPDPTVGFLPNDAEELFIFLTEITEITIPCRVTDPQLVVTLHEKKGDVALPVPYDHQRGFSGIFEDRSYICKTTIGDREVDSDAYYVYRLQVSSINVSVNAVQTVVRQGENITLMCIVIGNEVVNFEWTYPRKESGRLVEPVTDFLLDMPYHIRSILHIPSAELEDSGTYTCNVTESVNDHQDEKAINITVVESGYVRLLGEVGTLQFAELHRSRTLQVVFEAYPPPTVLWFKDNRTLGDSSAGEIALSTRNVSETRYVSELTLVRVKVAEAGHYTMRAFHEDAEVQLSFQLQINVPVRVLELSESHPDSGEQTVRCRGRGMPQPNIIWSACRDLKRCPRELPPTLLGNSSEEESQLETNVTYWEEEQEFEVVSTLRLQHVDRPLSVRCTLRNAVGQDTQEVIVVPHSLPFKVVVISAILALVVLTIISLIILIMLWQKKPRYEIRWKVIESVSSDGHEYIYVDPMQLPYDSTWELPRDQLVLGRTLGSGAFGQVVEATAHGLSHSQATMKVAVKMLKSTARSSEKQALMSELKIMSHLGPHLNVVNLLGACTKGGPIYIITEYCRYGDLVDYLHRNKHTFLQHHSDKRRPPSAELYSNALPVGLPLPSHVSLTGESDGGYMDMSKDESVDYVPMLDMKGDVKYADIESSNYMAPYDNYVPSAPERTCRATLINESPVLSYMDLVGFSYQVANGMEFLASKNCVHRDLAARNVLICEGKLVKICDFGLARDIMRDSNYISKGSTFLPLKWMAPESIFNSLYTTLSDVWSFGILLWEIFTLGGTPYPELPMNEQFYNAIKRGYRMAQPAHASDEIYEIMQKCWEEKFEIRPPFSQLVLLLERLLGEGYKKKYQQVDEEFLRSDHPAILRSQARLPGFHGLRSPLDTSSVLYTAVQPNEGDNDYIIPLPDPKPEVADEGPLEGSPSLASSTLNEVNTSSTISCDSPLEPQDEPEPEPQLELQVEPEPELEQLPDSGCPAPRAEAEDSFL
T3 sequence (P35968 20-1356): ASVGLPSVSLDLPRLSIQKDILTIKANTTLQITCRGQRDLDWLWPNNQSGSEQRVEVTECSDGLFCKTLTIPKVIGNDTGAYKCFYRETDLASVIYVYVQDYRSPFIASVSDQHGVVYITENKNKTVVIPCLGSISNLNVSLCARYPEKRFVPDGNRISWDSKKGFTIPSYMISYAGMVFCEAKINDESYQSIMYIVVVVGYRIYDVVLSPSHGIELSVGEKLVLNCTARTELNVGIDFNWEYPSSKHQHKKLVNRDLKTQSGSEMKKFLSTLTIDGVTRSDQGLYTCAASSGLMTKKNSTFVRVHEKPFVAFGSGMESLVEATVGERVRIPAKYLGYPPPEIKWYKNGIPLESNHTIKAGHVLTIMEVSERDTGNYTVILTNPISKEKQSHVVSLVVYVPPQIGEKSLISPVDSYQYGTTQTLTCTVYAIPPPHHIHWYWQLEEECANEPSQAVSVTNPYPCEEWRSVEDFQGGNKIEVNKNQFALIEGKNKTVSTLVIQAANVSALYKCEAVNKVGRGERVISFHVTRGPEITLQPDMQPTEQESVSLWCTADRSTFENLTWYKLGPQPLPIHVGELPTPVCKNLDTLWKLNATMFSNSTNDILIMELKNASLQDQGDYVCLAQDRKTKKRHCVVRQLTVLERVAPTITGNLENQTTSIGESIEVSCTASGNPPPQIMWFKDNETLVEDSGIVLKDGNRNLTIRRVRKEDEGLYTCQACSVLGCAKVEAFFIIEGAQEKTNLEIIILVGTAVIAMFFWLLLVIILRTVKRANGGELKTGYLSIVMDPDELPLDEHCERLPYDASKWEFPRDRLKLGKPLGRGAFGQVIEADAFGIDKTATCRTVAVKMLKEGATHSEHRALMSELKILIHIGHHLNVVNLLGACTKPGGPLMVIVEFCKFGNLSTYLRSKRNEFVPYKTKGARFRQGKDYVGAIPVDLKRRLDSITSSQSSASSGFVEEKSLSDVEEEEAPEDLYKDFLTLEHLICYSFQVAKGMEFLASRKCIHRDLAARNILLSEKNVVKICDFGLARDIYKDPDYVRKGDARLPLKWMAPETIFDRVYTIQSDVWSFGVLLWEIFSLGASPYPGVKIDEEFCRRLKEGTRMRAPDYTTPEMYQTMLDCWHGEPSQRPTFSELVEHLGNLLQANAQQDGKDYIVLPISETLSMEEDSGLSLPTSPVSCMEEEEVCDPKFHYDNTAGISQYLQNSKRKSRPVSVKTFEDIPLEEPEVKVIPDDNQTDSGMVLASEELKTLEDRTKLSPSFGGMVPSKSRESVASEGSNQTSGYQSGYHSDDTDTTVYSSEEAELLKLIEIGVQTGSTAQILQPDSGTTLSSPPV
T2 sequence (P17948 27-758 limits assumed): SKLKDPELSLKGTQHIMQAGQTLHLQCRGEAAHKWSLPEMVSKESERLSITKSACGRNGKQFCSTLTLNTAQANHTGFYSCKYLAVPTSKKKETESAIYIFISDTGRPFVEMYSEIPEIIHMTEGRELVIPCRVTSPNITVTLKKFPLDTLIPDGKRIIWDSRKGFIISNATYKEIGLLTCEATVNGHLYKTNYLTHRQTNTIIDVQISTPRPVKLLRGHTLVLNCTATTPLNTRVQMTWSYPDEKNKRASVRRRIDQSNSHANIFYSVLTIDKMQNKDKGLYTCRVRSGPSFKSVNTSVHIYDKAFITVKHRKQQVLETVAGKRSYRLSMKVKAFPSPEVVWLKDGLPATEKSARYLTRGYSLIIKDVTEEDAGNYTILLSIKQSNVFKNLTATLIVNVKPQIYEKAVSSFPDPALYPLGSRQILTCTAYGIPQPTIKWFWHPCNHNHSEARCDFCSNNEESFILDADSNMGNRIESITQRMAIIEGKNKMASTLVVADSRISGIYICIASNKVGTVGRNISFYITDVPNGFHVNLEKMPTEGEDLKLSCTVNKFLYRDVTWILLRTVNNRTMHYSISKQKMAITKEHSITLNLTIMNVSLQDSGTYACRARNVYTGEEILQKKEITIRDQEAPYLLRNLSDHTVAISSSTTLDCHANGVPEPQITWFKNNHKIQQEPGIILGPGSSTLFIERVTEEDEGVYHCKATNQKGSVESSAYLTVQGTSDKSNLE
T1 sequence (P35968 20-764 limits assumed): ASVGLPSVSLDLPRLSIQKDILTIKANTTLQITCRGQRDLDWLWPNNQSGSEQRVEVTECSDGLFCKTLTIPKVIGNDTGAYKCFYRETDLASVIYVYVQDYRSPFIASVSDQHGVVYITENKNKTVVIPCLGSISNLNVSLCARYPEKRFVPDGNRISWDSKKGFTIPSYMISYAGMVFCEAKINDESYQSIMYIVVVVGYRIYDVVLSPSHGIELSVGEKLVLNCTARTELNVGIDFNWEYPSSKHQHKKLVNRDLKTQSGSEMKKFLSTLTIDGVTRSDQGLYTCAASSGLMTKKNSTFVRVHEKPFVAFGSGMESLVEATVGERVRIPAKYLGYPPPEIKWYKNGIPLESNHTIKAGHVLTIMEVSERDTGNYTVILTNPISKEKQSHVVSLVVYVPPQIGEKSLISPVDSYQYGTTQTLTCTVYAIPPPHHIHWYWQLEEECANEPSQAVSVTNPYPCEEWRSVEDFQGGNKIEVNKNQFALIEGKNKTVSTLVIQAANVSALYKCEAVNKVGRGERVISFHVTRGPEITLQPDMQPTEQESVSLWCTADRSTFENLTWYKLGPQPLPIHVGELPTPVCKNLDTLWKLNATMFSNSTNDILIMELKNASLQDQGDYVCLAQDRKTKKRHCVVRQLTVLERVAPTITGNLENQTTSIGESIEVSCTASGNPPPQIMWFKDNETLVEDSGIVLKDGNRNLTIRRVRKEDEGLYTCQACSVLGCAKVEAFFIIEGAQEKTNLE

B1: TIMP3: tissue inhibitor of metalloproteinases-3; recombinant human form expressed in NSO myeloma cells, or wild-type expressed in transfected cells (protein, listed as Homo sapiens)
chain: MTPWLGLIVLLGSWSLGDWGAEACTCSPSHPQDAFCNSDIVIRAKVVGKKLVKEGPFGTLVYTIKQMKMYRGFTKMPHVQYIHTEASESLCGLKLEVNKYQYLLTGRVYDGKMYTGLCNFVERWDQLTLSQRKGLNYRYHLGCNCKIKSCYYLPCFVTSKNECLWTDMLSNFGYPGYQSKHYACIRQKGGYCSWYRGWAPPDKSIINATDP
MMP inhibitory activity in ECM and CM (reverse zymography) (MMPs): marked MMP inhibitory species
VEGF-stimulated migration of cells expressing TIMP3 variant (PAEKDR cells [1]): dramatically reduced basal and VEGF-stimulated migration
direct binding of [125I]TIMP3 to KDR-IgG by cross-linking (KDR-IgG): could be covalently cross-linked to KDR-IgG
VEGF-stimulated proliferation of cells expressing TIMP3 variant (PAEKDR cells [2]): dramatic attenuation in the VEGF response
inhibition of [125I]VEGF binding to soluble FLT1-IgG (soluble FLT1-IgG): could not inhibit
IC50 for inhibition of [125I]VEGF binding to PAE-KDR cells (KDR [3]): 3.3 to 4.5 µg/mL
inhibition of VEGF165-induced phosphorylation of KDR (KDR [4]): strongly inhibited
inhibition of endothelial cell migration toward VEGF (PAE-KDR cells; added exogenously, VEGF165 10 ng/ml): inhibited their migration toward VEGF in a dose-dependent manner
dose giving complete inhibition of migration toward VEGF (PAE-KDR cells; recombinant protein added exogenously): 3 µg/mL
chemotactic response to VEGF121 and VEGF165 (PAE-KDR cells; stable expression of TIMP3 in the endothelial cells): attenuation of the chemotactic response
downstream phosphorylation of ERK1 and ERK2 in response to VEGF (ERK1 and ERK2): inhibited in response to VEGF
effect on phosphorylation of PDGFR-β stimulated with PDGF-BB (PDGFR-β [5]): did not affect
inhibition of PDGF-BB binding to PAE-PDGFR-β cells (PDGFR-β [6]): Neither recombinant TIMP3 nor overexpression of TIMP3 could inhibit binding of PDGF-BB
